Reference: US20190322746A1 (TESARO, published 2019)

Biological target: T1, T Cell Immunoglobulin and Mucin Domain-3 (TIM-3) on circulating CD14+ monocytes of patients (human, UniProt Q8TDQ0 22-301)
T1 construct: whole, on cells; Endogenous receptor on peripheral blood monocytes of patients in a first-in-human study; also called HAVCR2; TIM-3 receptor
Assay: flow cytometry receptor occupancy on circulating monocytes, whole blood of treated patients
Method: To measure binding in the RO assay, whole blood was collected from patients at baseline (Day 1 predose), 48 hours following the first dose (Day 3) and prior to the second dose (Day 15 predose) for the Q2W schedule. […] Samples for occupancy measurement on the Q3W schedule were collected as follows: Day 1 predose, Day 5, Day 15 and Day 22.
All samples were pre-dose, with occupancy measured after a single dose on day 1. The occupancy ratio (free TIM-3:total TIM-3) is determined at various time points (for example, timepoints can include day 1, day 3, day 15, day 22, and day 29).

binding result: binds
B1: TSR-022 (antibody, human IgG4 S228P, kappa, V domains shown)
VH: EVQLLESGGGLVQPGGSLRLSCAAASGFTFSSYDMSWVRQAPGKGLDWVSTISGGGTYTYYQDSVKGRFTISRDNSKNTLYLQMNSLRAEDTAVYYCASMDYWGQGTTVTVSS
VL: DIQMTQSPSSLSASVGDRVTITCRASQSIRRYLNWYHQKPGKAPKLLIYGASTLQSGVPSRFSGSGSGTDFTLTISSLQPEDFAVYYCQQSHSAPLTFGGGTKVEIKR
notes: Humanized IgG4 (human IGHG4*01 scaffold) with a kappa light chain (IGKC*01); also called anti-TIM-3 antibody; exemplary anti-TIM-3 antibody
